Experimental data taken from article PMC10630337, “Transcriptional reprogramming by mutated IRF4 in lymphoma”.
Substitutions are numbered along the chain they refer to.

T1: IRF4-C99R DBD;JUNB DBD;BATF DBD (human;human;human, UniProt Q15306;P17275;Q16520 20-139;269-329;28-87, C99R||)
T1 sequence 1: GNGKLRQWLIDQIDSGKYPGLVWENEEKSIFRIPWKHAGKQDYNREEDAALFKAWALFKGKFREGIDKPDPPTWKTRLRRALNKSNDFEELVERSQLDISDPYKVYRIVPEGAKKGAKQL
T1 sequence 2: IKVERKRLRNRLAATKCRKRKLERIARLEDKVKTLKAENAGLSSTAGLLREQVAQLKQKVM
T1 sequence 3: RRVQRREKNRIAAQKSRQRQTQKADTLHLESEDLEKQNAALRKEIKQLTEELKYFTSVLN

T2: IRF4-WT DBD;JUNB DBD;BATF DBD (human;human;human, UniProt Q15306;P17275;Q16520 20-139;269-329;28-87, ||)
T2 sequence 1: T1 sequence 1 with R80C
T2 sequence 2: T1 sequence 2
T2 sequence 3: T1 sequence 3

B1: AICE2 (Bcl11b) short, IRF motif tAcA (dsDNA)
DNA 1: AGTGCATACATGAGTCAGAGATC
DNA 2: AGGATCTCTGACTCATGTATGCA
B2: AICE2 (Bcl11b) (dsDNA)
DNA 1: AGCTTAGTGCAGAAATGAGTCAGAGATCAAAGAAG
DNA 2: AGCTCTTCTTTGATCTCTGACTCATTTCTGCACTA
B3: AICE2FLIP (AICE2 5'TTTC) (dsDNA)
DNA 1: B2 DNA 1 with G12T, A13T, A14T, A15C
DNA 2: B2 DNA 2 with T25G, T26A, T27A, C28A
B4: AICE2FLIP short IRFmut (dsDNA)
DNA 1: AGTGCATGTATGAGTCAGAGATC
DNA 2: AGGATCTCTGACTCATACATGCA

Tests used:
[1] = target: T1, IRF4-C99R DBD;JUNB DBD;BATF DBD; assay: EMSA; IRF4 composite complex abolished; EMSA: 10 mM HEPES pH 7.9, 70 mM KCl, 5 mM DTT, 1 mM EDTA, 2.5 mM MgCl2, 4% Ficoll, 0.5 mg/ml BSA, 0.1 ug/ml poly(dI-dC); 3-5 ug nuclear extract; temperature not stated; details: protein: recombinant;recombinant;recombinant; copies: 1;1;1; label: 32P-dCTP Klenow end label; 5' overhang 2 nt before Klenow labeling
[2] = target: T1, IRF4-C99R DBD;JUNB DBD;BATF DBD; assay: EMSA; short or long probe not certain; EMSA: 10 mM HEPES pH 7.9, 70 mM KCl, 5 mM DTT, 1 mM EDTA, 2.5 mM MgCl2, 4% Ficoll, 0.5 mg/ml BSA, 0.1 ug/ml poly(dI-dC); 3-5 ug nuclear extract; temperature not stated; details: protein: recombinant;recombinant;recombinant; copies: 1;1;1; label: 32P-dCTP Klenow end label; 5' overhang 4 nt before Klenow labeling
[3] = target: T2, IRF4-WT DBD;JUNB DBD;BATF DBD; assay: as above; details: protein: recombinant;recombinant;recombinant; copies: 1;1;1; label: 32P-dCTP Klenow end label; 5' overhang 4 nt before Klenow labeling

| Binder | binding result [1] | binding result [2] | binding result [3] |
| --- | --- | --- | --- |
| B1 | no binding | – | – |
| B2 | – | binds | – |
| B3 | – | binds | no binding |
| B4 | no binding | – | – |
